B1: Ras GTPase-activating-like protein IQG1 (Saccharomyces cerevisiae), Q12280 (parent)
chain: MTAYSGSPSKPGNNNSYLNRYVENLGTNVTPPLRPQSSSKINSSLNIASPSHLKTKTSASNSSATILSKKVESSVSKLKPSLPNKLVGKYTVDLSNYSKIELRYYEFLCRVSEVKIWIEAVIEEALPSEIELCVGDSLRNGVFLAKLTQRINPDLTTVIFPAGDKLQFKHTQNINAFFGLVEHVGVPDSFRFELQDLYNKKNIPQVFETLHILISMINKKWPGKTPALTNVSGQISFTKEEIAACKKAWPRIRDFKSLGTNINTAPASPEEPKEKRSGLIKDFNKFERPNIPVEEILITPRKNITDANCSDFSNTPSPYNEAPKMSNLDVVVEKRKFTPIEPSLLGPTPSLEYSPIKNKSLSYYSPTISKYLTYDTEFYTRRSRAREEDLNYYQTFKYSPSHYSPMRRERMTEEQFLEKVVQLQNICRGVNTRFNLYIQKRLLNLFEQDILRFQACLRGNKFRVLSSMYLPIRRAKIDVPHVEAIQSRIKGSRIRYKYDKLKFTLSRFSCTVELLQAYCRSKLLKTTVNTKLNDIEISHYPLTKLQSYMRASYVRKKVMSLNTKLNDERESIMKFSAIIRGNVVRCSEDAILSAVHDVHKENISKLQSLIRGIFTRSCLASIIYSLGKENCNIIQLSACIRGNAVRHKVQSLFAPENNLSETVHDLQGLVRGILVRYTLDLVDDIVEYNNLALFQAFSRGALVRESLDQKSSFYKRNVRSVIMIQSWIRKSLQRSAYLELLDCPNPSLWAVKKFVHLLNGTATIEEVQNQLESCQASLDSENMKKERLLKSIRQQLNINGVLDKFGLLKDKDHELGISDSTIPKSKYQKYEKLFYMLQVDPSYWKLLYLKEPEFVAKNVYMTFGTVNQRMNDRERSYFTRFVCEMLQNAINEAPSIESFLDNRSQFWQTILQDFLRRESPEFFSIIVPVLDYLSDPVVDFESDPYKIYQEIHGFSSPQHCSPVDDASTKNKFIDNLRCLWHAIEMVAEIYTRKVHTIPVEIRYLCTKIFCYAADKNIEEIDSLRAISSILVNVFVSEYLVNREYYGYKDSNVQKNNQKIDILMKSLATVFEIKNFDGFLDPLNQYANEIKPHIKDVLYNVLVDPEYEQEGDRLIYLDMVSPSPKLELLTEKVLEISGKFEEYLNEFPEADILHDILEKNLDNSSFPRSGRVTLELDASAYRFLVSDDKMRKIYDQVKRAFVYMMQIEDVDTNLYDLSISTILPQDEPNFANFLEQNPKIRDDPMIQKLKPLKYFTLKNVTLKKIHELESTGTFCSSDNKLQNFLNDIANTIKNPNYAIDYVTQEIYITKETLTKISEMNHSLDIELSRLKKHVDHTIKDFQKAKDFSPVHKSKFGNFKNAVKKVQGRERSELQGMKFKWNTKQLYERGVLKTIRGEKLAELTVKVFGSSGPKFPDIIFKISTSDGSRFGIQMIDKRKGPDKRYSDDVDSFSFKDLIKTQVEPKIETWKLFHSNVVVNNSQLLHLIVSFFYKRNAL
partner: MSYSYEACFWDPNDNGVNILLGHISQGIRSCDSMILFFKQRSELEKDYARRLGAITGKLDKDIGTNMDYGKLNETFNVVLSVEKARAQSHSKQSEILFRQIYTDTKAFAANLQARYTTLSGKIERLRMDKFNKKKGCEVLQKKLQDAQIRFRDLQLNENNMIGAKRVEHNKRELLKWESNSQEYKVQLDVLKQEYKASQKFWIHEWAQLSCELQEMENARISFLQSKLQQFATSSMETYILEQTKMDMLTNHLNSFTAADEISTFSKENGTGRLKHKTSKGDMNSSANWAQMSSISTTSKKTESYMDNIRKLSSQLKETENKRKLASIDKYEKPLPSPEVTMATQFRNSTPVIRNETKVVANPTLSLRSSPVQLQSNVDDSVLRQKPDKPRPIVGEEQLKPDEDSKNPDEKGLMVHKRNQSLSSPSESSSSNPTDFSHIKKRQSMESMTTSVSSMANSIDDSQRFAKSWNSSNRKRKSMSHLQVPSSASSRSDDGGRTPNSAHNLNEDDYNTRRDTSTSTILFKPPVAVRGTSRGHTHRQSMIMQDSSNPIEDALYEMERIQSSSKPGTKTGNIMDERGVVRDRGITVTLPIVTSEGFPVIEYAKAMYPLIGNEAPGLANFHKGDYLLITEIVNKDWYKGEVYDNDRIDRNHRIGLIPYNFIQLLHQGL

Variants of: B1
Conditions: with cyk2_yeast HOF1, Q05080

Row | Variant | effect of a mutation on the interaction
1 | Q667S | disrupting interaction strength
2 | Q667S;Q695S | disrupting interaction strength

Next, values leading:

Row | effect of a mutation on the interaction | Variant
3 | disrupting interaction strength | Q695S
4 | with no effect | Q725S

Reference: IntAct's records for PubMed 24895401
